Measurements taken from patent US20190367606A1 (CENTRE FOR DRUG RESEARCH AND DEVELOPMENT, published 2019).

T1: human podocalyxin (human, UniProt O00592 23-558)
T1 construct: also called hPodo; hPodocalyxin
T1 sequence: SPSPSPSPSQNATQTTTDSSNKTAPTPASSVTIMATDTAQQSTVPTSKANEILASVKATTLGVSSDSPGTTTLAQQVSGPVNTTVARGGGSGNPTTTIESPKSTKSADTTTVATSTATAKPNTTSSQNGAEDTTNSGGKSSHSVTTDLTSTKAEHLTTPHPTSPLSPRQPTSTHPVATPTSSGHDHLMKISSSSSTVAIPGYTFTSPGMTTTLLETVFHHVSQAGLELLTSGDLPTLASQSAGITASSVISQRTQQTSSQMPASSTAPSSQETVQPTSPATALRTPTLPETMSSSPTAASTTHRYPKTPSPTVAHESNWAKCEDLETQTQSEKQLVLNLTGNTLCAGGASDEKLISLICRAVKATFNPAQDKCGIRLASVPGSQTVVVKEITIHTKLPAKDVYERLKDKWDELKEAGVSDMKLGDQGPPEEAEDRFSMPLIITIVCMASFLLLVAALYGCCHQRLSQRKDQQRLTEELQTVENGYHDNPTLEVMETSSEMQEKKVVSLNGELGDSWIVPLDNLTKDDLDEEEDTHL

B1: Rabbit Podo 83 (Parental rabbit antibody) (antibody, V domains shown)
VH: QSLAESGGRLVTPGTPLTLTCTASGIDLSSYAMGWVRQAPGKGLEYIGFIYASGSIFYASWAKGRFTISKTSSTTVDLKMTSLTTEDTATYFCARAGYYFGGNYDLNLWGQGTLVTVSS
VL: DIVLTQTPASVEVAVGGTVTIKCQASQSISNYLAWYQRKPGQPPRLLIYRASTLASGVSSRFKGSGSGTQFTLTISGVECADAATYYCQQGYVSNNLDNIFGGGTEVVVK
notes: Rabbit constant regions; also called Rb Podo 83 (Rb Constant Region); rabbit Podo-83 (Ab-1)
B2: huPodo 83 1:1 (humanized anti-podocalyxin antibody 83, version 1) (antibody, V domains shown)
VH: EVQLVESGGGLVQPGGSLRLSCAASGIDLSSYAMGWVRQAPGKGLEWVSFIYASGSIFYASWAKGRFTISRDNSKNTLYLQMNSLRAEDTAVYYCARAGYYFGGNYDLNLWGQGTLVTVSS
VL: DIQMTQSPSSLSASVGDRVTITCQASQSISNYLAWYQQKPGKVPKLLIYRASTLASGVPSRFSGSGSGTDFTLTISSLQPEDVATYYCQQGYVSNNLDNIFGGGTEVVVK
notes: Cloned into pTT5 plasmids with human IgG heavy chain and human Ig kappa constant regions
B3: Rb VH, Vk 1:1 (Podo 83 rabbit VH, human CH1-CH3, human Ck, and humanized Vk) (antibody, V domains shown)
VH: B1 VH
VL: B2 VL
notes: Human CH1-CH3 and human Ck
B4: huPodo 83 2:1 (humanized anti-podocalyxin antibody 83, version 2) (antibody, V domains shown)
VH: EVQLVESGGGLVQPGGSLRLSCAASGIDLSSYAMGWVRQAPGKGLEWVSFIYASGSIFYASWAKGRFTISRDNSNTLYLQMNSLRAEDTAVYYCARAGYYFGGNYDLNLWGQGTLVTVSS
VL: B2 VL
notes: as for B2
B5: mouse anti-podocalyxin antibody 3G2 (Ab-2) (antibody, V domains shown)
VH: EVQLQQSGPELVKPGASVKMSCKASGYTFTSYVMHWVKQKPGQGLEWIGYIHPYNDGTNYNEKFKGKATLTSDKSSNTAYMELSSLTSEDSAVYYCARSWDWYFDVWGAGTTVTVSS
VL: QIVLTQSPAIMSASPGEKVTMTCSANSNVRYIHWHQQKSGTSPKRWIYDTSKLSSGVPARFSGSGSGTSYSLTISNMEAEDAATYYCQQWISNPLTFGAGTKLELK
notes: also called 3G2.2; Podo-3G2.2

What was measured:
[1] = biological target: T1, human podocalyxin; test: FACS, isotype control, hPodo/MDA (MDA-MB-231 cells transfected with human Podocalyxin cDNA)
[2] = biological target: T1, human podocalyxin; test: cross competition FACS, MDA-MB-231 cells; row antibody unlabelled 25 ug/mL first; competitor (detected): B-mlgG1 5 ug/mL (control)
[3] = biological target: T1, human podocalyxin; test: cross competition FACS, MDA-MB-231 cells; row antibody unlabelled 25 ug/mL first; competitor (detected): B-Ova 12 5 ug/mL (control)
[4] = biological target: T1, human podocalyxin; test: cross competition FACS, MDA-MB-231 cells; row antibody unlabelled 25 ug/mL first; competitor (detected): B-3G2.2 5 ug/mL
[5] = biological target: T1, human podocalyxin; test: cross competition FACS, MDA-MB-231 cells; row antibody unlabelled 25 ug/mL first; competitor (detected): biotinylated Rb/Hu Podo83 5 ug/mL
[6] = biological target: T1, human podocalyxin; test: flow cytometry, supernatant 1:5, hPodo/MDA-MB-231 transient transfectants
Description: (§1) The following antibodies were transiently transfected in 293HEK cells, transfected cells were incubated for 96 hours, antibody containing supernatant was then serially titrated in FACS sample buffer. The following supernatants were used as test samples:
(§2) MDA transient transfectants were established as essentially described above in Example 1. MDA transient transfectants and MDA-MB-231 cells were seeded in 96-well v bottom plates at 75,000 cells/well. Cells were pelleted by centrifugation at 400 g for 3 min. Supernatant was removed. The cell pellets were resuspended in 20 μl of the antibody or control supernatants. The plate was incubated on ice for 1 hour.
(§3) The cells were washed by adding 200 μl FACS buffer to dilute unbound antibody. The plate was centrifuged at 400 g for 3 min to pellet cells. The supernatant was removed and repeated. The cell pellets were resuspended in 25 μl of either goat anti-Hu IgG Fc-Alexa647, goat anti-Mouse IgG Fc-Alexa647, or goat anti-rabbit IgG0Fc-A647 (2 μg/ml) and 7A.A.D (2.5 μg/ml). The plates were incubated on ice for 0.5 hours. The wash procedure was again repeated 2×. The cell pellets were finally resuspended in 75 μl FACS buffer and read on the HTFC™ Screening System (IntelliCyt Corporation) (3 sec sip, 1.5 up time) and analyzed on the HyperView® software (IntelliCyt Corporation).

[7] = biological target: T1, human podocalyxin; test: flow cytometry, supernatant 2:15 (so in the source), hPodo/MDA-MB-231 transient transfectants
Description: as §1, §2, §3

[8] = biological target: T1, human podocalyxin; test: flow cytometry, supernatant 2:15 (so in the source), MDA-MB-231 cells
Description: as §1, §2, §3

[9] = biological target: T1, human podocalyxin; test: flow cytometry, supernatant 1:125, MDA-MB-231 cells
Description: as §1, §2, §3

[10] = biological target: T1, human podocalyxin; test: flow cytometry, supernatant Neat, MDA-MB-231 cells
Description: as §1, §2, §3

[11] = biological target: T1, human podocalyxin; test: flow cytometry, supernatant 1:5, MDA-MB-231 cells
Description: as §1, §2, §3

[12] = biological target: T1, human podocalyxin; test: flow cytometry, supernatant 1:125, hPodo/MDA-MB-231 transient transfectants
Description: as §1, §2, §3

[13] = biological target: T1, human podocalyxin; test: flow cytometry, supernatant Neat, hPodo/MDA-MB-231 transient transfectants
Description: as §1, §2, §3

[14] = biological target: T1, human podocalyxin; test: flow cytometry titration on 293-6E cells (endogenous podocalyxin), 48 hours at 4 C
Description: (§4) The affinities of huPodo 83 1:1 and huPodo 83 2:1 antibodies were determined against endogenously expressed podocalyxin on 293 HEK cells. 293-6E cells were seeded in 96-well v bottom plates at 100,000 cells/well. The cells were pelleted at 400 g for 3 min and the supernatant was discarded. The cells were placed on ice and antibody 1:3 titrations were prepared using ice cold medium. The cells were resuspended in the prepared antibody titrations at 25 μl/well and incubated at 4° C. for either 24 or 48 hours. 200 μl 1% FBS/PGS (FACS buffer) was added to each well. The cells were pelleted at 400 g for 3 min and supernatant removed. The wash was repeated 2 more times. The cells were resuspended in goat anti-human IgGFc-A647 (2 μg/ml)+2.5 μg/ml 7AAD and incubated on ice for 30 min. The cells were washed as above and resuspended in 50 μl FACS buffer. The cells were analyzed by flow cytometry using the HTFC™ Screening System (IntelliCyt Corporation) (3 sec sip, 1.5 sec up) and the C6 cytometer (Becton Dickenson).

[15] = biological target: T1, human podocalyxin; test: flow cytometry titration on 293-6E cells (endogenous podocalyxin), 24 hours at 4 C
Description: as §4

[16] = biological target: T1, human podocalyxin; test: kinetic exclusion assay (KinExA 3200), MDA-MB-231 cells
Description: The concentration dependence of free anti-podocalyxin antibody as a function of MDA-MB231 cell number was determined using a KinExA 3200 instrument (Sapidyne Instruments). Briefly, MDA-MB-231 cells, which express endogenous podocalyxin, were titrated 1:2 from 10×10⁶ cells/mL down 12 steps, and incubated with a fixed concentration of anti-podocalyxin antibodies. MDA-MB231 cells and cell bound antibodies were then isolated by centrifugation. Supernatant containing free, unbound antibody was then transferred to a new tube. The supernatant containing free unbound antibody was passed over the column containing PMMA beads coated with a goat anti-IgG-Fc capture antibody. The amount of free antibody captured on the PMMA beads was then measured using a goat anti-IgG-Fc-A647. This process was repeated for every cell concentration. For each sample assayed a new column of PMMA beads with the goat anti-IgG-Fc capture antibody was packed. The concentration of free antibody over the entire 12 step dilution series was then used to determine the antibody Kd's using the standard Kd template in the KineExA Pro Software (Sapidyne Instruments).

| Molecule | flow cytometry fluorescence (name not given) [6] | flow cytometry fluorescence (name not given) [7] | flow cytometry fluorescence (name not given) [8] | flow cytometry fluorescence (name not given) [9] | flow cytometry fluorescence (name not given) [10] | flow cytometry fluorescence (name not given) [11] | flow cytometry fluorescence (name not given) [12] | flow cytometry fluorescence (name not given) [13] | further results |
| --- | --- | --- | --- | --- | --- | --- | --- | --- | --- |
| hlgG2 (antibody) |  |  |  |  |  |  |  |  | FACS signal (name not given) [1]: 533 |
| MAB1658 (R&D Systems) (antibody) |  |  |  |  |  |  |  |  | FACS signal of the biotinylated antibody named under assay [2]: 431; FACS signal of the biotinylated antibody named under assay [3]: 476; FACS signal of the biotinylated antibody named under assay [4]: 26900; FACS signal of the biotinylated antibody named under assay [5]: 127000 |
| hlgG1 (antibody) |  |  |  |  |  |  |  |  | FACS signal (name not given) [1]: 544 |
| 3D3 (Santa Cruz Biotechnology sc23904) (antibody) |  |  |  |  |  |  |  |  | FACS signal of the biotinylated antibody named under assay [2]: 419; FACS signal of the biotinylated antibody named under assay [3]: 450; FACS signal of the biotinylated antibody named under assay [4]: 26400; FACS signal of the biotinylated antibody named under assay [5]: 135000 |
| B1 | 139000 | 89700 | 53700 | 15500 | 179000 | 129000 | 24100 | 90800 |  |
| B2 | 128000 | 157000 | 91500 | 39400 | 125000 | 112000 | 61600 | 124000 | IC50 [14]: 0.0355 µg/mL; IC50 [15]: 0.0331 µg/mL; Kd [16]: 0.26 nM |
| B3 | 124000 | 76400 | 94800 | 47700 | 130000 | 115000 | 74500 | 137000 |  |
| B4 | 108000 | 79400 | 67200 | 22300 | 123000 | 105000 | 37700 | 139000 | IC50 [14]: 0.052 µg/mL; IC50 [15]: 0.0519 µg/mL |
| B5 |  |  |  |  |  |  |  |  | Kd [16]: 3.34 nM |
